Measured values as given in PMC7190841 (Scientific Reports, 2020).
One block for each substance: values may come before it.

Legend:
P-IR(Tyr1158) = biological target: T1, P-IR(Tyr1158) (Homo sapiens, UniProt P06213); experiment: Activation of IR in L6hIR cells in vitro, sandwich ELISA; type: cell-based; details: ligands 0-1000 nM for 30 min, 0.1% human serum albumin, three replicates
T1 construct: expressed in transfected cells; host or cells: rat L6 myoblast cells (L6hIR, generated at Novo Nordisk)
Protocol: L6hIR cells were seeded in 12-well plates and grown until 90–100% confluence in DMEM (Gibco, Invitrogen, Carlsbad, CA, USA). Cells were stimulated with increasing concentrations of ligands (0–1000 nM) for 30 min in DMEM (Gibco) medium containing 0.1% human serum albumin. Subsequently, cells were washed three times in ice-cold phosphate buffered saline (PBS) and snap-frozen by pouring liquid nitrogen into the wells. Cells were lysed in 100 µL lysis buffer (cell extraction buffer from BioSource, Invitrogen, Carlsbad, CA, USA; supplemented with 1 mmol/l 4-(2-aminoethyl)benzenesulfonyl fluoride hydrochloride, and protease inhibitor cocktail from Sigma-Aldrich).
(§1) Fitting of dose-response curves describing thymidine-incorporation in vitro and activation of IR and IGF-1R, including calculation of EC50 values, were conducted with GraphPad Prism (GraphPad Software Inc., La Jolla, CA, USA).

L6hIR cells = experiment: Mitogenic potency from thymidine-incorporation in L6hIR cells; type: cell-based, rat; details: weighted mean [95% CI], at least three independent experiments
Protocol: as §1
(§2) H4IIE cells (ATCC, Manassas, VA, USA) were cultured in minimum essential medium (MEM) (Gibco) supplemented with 10% (v/v) FBS, 100 µg/ml penicillin and 100 U/ml streptomycin, 1% (v/v) MEM non-essential amino acids and 1% (v/v) pyruvate (all from Gibco).

[1] = system: IR and IGF-1R in L6hIR xenografts; experiment: Acute activation of IR and IGF-1R in L6hIR xenografts in vivo; design: species or system mouse; details: experiment A; 300 nmol/kg s.c., single treatment, euthanized 20 min later; n = 7-8
Protocol: Male BALB/c nude mice (CAnN.Cg-Foxn1 nu/Crl) were purchased from Charles River (Charles River Laboratories Germany, Sulzfeld, Germany) at age of seven weeks and housed five mice per cage in individually ventilated Techniplast GR 900 Seal Safe Plus cages, with unrestricted access to a complete pelleted rodent diet (Altromin 1324, Brogården, Hørsholm, Denmark) and tap water (non-chlorinated, non-acidified). In the animal room the temperature was 18–24 °C, with relative humidity at 30–70%, air change 8–15 times/h and a light-dark cycle of 12/12 h. All mice were acclimatized for 10 days before experiments were started. On day 0, all mice were injected s.c. in the right flank with 2.5 million L6hIR (six experiments) or L6 cells (one experiment), suspended in 0.1 ml PBS. On the same day treatment with vehicle or test compounds was started and continued either once or twice daily until the end of the experiment (Supplementary Table S5). […]
L6hIR cell xenograft samples were lysed in cell extraction buffer as described previously[10]. Protein concentration of cell and xenograft lysates was assessed with Pierce BCA protein assay kit (Thermo Fisher Scientific, Hvidovre, Denmark), according to the manufacturer’s instructions.

H4IIE cells = experiment: Mitogenic potency from thymidine-incorporation in H4IIE cells; type: cell-based, rat; details: weighted mean [95% CI], at least three independent experiments
Protocol: as §1, §2

[2] = Lowering of blood glucose in mice with L6hIR xenografts; type: in vivo, mouse; details: 300 or 600 nmol/kg s.c., experiment D
Protocol: Blood glucose and plasma concentrations of test compounds and endogenous mouse insulin were assessed as described previously[10].

[3] = Pharmacokinetics after s.c. injection in mice; type: in vivo; details: mouse; for t1/2 / Cmax: mean [95% CI]; for t1/2 / tmax / Cmax: n = 15; for tmax: median; for Cmax: sparse sampling 0-240 min, population PK and non-compartment analysis
Protocol: Pharmacokinetic (PK) parameters were estimated from the two experiments with sparse sampling (three blood samples per mouse) for 0–240 min. Initially, population PK models[25] for each compound was developed in Nonmem (Icon, Dublin, Ireland) and approximately 60 individual post-hoc concentration-time data points per mouse was subjected to non-compartment analysis.

[4] = s.c., range over doses of 300 and 600 nmol/kg of HI and IX10

T1 sequence (P06213 28-1370 isoform P06213-2 limits assumed): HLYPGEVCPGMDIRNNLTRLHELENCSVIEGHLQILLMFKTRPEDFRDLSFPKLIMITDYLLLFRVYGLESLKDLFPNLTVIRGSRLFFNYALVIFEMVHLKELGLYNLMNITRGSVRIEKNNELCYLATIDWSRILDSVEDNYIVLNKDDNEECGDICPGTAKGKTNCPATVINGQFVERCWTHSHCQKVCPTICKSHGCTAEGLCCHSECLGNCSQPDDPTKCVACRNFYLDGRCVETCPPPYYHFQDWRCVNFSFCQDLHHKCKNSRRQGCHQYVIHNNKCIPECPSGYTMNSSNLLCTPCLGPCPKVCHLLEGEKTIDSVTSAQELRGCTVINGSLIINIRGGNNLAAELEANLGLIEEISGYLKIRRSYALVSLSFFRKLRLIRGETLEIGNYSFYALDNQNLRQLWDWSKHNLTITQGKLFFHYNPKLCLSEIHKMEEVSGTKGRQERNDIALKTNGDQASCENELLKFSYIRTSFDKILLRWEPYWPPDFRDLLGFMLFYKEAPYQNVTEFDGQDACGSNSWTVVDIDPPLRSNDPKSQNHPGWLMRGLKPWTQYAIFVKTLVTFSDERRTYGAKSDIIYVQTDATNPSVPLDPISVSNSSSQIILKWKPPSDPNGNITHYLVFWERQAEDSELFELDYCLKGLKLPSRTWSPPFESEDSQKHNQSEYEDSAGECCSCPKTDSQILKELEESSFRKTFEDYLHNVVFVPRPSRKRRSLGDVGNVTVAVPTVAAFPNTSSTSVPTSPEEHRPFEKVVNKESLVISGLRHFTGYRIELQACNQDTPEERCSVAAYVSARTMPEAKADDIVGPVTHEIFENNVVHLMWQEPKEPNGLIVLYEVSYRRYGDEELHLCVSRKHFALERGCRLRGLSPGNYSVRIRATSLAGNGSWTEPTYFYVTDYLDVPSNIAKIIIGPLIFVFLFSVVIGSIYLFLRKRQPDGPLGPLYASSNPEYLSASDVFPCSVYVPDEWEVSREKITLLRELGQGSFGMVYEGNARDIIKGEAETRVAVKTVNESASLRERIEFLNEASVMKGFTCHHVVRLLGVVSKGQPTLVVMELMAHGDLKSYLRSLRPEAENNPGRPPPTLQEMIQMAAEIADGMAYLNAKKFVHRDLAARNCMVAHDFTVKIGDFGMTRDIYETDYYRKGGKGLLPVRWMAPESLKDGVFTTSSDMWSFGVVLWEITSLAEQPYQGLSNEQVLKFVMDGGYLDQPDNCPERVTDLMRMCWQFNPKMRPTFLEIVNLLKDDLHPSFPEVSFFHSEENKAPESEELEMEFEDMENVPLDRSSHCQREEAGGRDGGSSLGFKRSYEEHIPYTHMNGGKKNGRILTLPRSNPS
T1 sequence (P06213 763-1382 partner limits assumed): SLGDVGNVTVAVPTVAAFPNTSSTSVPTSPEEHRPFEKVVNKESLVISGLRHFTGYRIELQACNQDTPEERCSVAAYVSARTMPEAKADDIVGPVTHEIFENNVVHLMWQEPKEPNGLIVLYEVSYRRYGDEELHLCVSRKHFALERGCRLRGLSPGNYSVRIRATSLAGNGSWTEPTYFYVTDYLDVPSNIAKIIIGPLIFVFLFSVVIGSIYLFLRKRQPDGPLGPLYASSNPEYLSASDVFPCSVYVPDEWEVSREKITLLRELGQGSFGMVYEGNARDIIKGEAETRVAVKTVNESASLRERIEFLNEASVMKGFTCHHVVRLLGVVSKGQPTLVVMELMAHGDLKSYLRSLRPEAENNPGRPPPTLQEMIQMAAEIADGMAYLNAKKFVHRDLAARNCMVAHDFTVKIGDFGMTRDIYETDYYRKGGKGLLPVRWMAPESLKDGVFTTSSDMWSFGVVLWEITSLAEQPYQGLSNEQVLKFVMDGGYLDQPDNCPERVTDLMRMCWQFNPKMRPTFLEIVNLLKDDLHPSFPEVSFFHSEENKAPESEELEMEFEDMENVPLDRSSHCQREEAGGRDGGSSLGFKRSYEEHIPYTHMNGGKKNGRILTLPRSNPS

EC50 (P-IR(Tyr1158)): 25.8 nM
Substance: IGF-1: human IGF-1, reference ligand in receptor activation assays

Substance: human insulin [HI]
mitogenic potency L6hIR cells (% of HI) (L6hIR cells): 100 % of HI | Activation of IR and IGF-1R in L6hIR xenografts in vivo [1]: acute activation of IR and IGF-1R | mitogenic potency H4IIE cells (% of HI) (H4IIE cells): 100 % of HI | Duration of decreased blood glucose [2]: 4 to 6 h | t1/2 ([3]; 300 nmol/kg s.c., experiment H): 96 [85 ; 107] min | tmax ([3]; 300 nmol/kg s.c., experiment H): 11 min | Cmax ([3]; 300 nmol/kg s.c., experiment H): 725.7 [654.0 ; 797.4] nmol/l | t1/2 ([3]; 600 nmol/kg s.c., experiment I): 52 [48 ; 56] min | tmax ([3]; 600 nmol/kg s.c., experiment I): 17 min | Cmax ([3]; 600 nmol/kg s.c., experiment I): 812.5 [761.7 ; 863.4] nmol/l | elimination half-life [3, 4]: 60 to 90 min | maximum plasma concentration [3, 4]: 500 to 850 nmol/L | time of maximum plasma concentration after s.c. injection [3, 4]: 11 to 17 min
